Our source for the fold of LDL bound on the cell surface, cells with Dab1 against cells without Dab1 and LDL bound on the cell surface (125I labeled human LDL) values is patent US6428967.

The target of assay [1] is wild type human LDL receptor on CHO cells (human) (UniProt P01130). Description: 125I-LDL surface binding on CHO cells expressing the wild type human LDL receptor, with or without Dab1.
Assay [2] has the same target. Description: cell-based or functional assay.

Chain of wild type human LDL receptor on CHO cells (human) (P01130 22-860): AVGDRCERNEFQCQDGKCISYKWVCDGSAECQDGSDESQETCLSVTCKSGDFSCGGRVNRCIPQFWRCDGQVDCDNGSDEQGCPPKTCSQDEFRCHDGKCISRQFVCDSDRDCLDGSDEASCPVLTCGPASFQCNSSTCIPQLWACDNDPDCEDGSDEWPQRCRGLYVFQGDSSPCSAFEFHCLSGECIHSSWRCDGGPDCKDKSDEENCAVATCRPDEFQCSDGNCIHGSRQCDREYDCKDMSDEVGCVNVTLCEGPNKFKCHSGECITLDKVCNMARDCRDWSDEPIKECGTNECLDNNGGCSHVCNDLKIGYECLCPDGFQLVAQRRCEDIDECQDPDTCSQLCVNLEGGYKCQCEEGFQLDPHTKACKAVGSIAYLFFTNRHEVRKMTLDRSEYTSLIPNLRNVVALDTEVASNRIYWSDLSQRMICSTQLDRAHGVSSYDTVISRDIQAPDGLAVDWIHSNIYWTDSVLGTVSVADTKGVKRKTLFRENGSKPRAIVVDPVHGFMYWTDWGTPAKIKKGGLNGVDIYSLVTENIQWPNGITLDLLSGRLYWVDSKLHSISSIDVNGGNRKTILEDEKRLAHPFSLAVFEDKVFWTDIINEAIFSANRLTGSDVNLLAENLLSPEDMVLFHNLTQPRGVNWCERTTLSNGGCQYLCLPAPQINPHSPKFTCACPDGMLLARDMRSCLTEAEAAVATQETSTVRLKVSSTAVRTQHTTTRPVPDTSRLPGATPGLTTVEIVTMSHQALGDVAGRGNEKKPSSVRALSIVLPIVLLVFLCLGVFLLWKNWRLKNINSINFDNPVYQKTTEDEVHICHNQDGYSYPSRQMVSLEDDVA

On to 125I labeled human LDL, P04114 28-4563, for which the fold of LDL bound on the cell surface, cells with Dab1 against cells without Dab1 in assay [1] is 2 times. With “Dab1 expressed in CHO cells from pcDNA3.1/ZEO DAB555 (from UniProt P97318 1-555)”, in assay [2], the LDL bound on the cell surface (125I labeled human LDL) was determined as 2 times.
